Data as given in US20240116985A1 (published 2024).
Starred links: 1 amine or outer side, 2 acyl side, 3 side chain; linkers in the order of their positions; H or OH if unused. Positions of bridges follow the written chain, without caps; N, C: chain ends. Non-standard residues stand in square brackets, D forms with d. Primed or numbered codes have the meaning given here. No end group written: not given here. PyrS2″ = (S)-3-amino-1-((pent-4-en-1-yloxy)carbonyl)pyrrolidine-3-carboxylic acid (stapling residue), C=CCCCOC(=O)N1CC[C@@](N[*:1])(C(=O)[*:2])C1; B5(4) = 2,2-bis(4-pentenyl)glycine = 2-amino-2-(pent-4-en-1-yl)hept-6-enoic acid (stitching residue), C=CCCCC(CCCC=C)(N[*:1])C(=O)[*:2]; PyrS2 = (S)-3-amino-1-((pent-4-en-1-yloxy)carbonyl)pyrrolidine-3-carboxylic acid, C=CCCCOC(=O)N1CC[C@@](N[*:1])(C(=O)[*:2])C1; B5(13) = 2-amino-2-(pent-4-en-1-yl)hept-6-enoic acid (two alkene chains), C=CCCCC(CCCC=C)(N[*:1])C(=O)[*:2]; B5(3) = 2,2-bis(4-pentenyl)glycine (stitching residue), C=CCCCC(CCCC=C)(N[*:1])C(=O)[*:2]; Phe(2-CF3) = N[C@@H](Cc1ccccc1C(F)(F)F)C(=O)O; Phe(2-CONH2) = NC(=O)c1ccccc1C[C@H](N)C(=O)O; Phe(2-Br) = N[C@@H](Cc1ccccc1Br)C(=O)O; Phe(2-Cl) = N[C@@H](Cc1ccccc1Cl)C(=O)O; Phe(2-OMe) = COc1ccccc1C[C@H](N)C(=O)O; 1Nal = N[C@@H](Cc1cccc2ccccc12)C(=O)O; 2Nal = N[C@@H](Cc1ccc2ccccc2c1)C(=O)O; Phe(2-F) = N[C@@H](Cc1ccccc1F)C(=O)O; Phe(2-Me) = Cc1ccccc1C[C@H](N)C(=O)O; Bta = N[C@@H](Cc1csc2ccccc12)C(=O)O; Lys(iPr) = CC(C)NCCCC[C@H](N)C(=O)O; αAllylPro = C=CC[C@@]1(C(=O)O)CCCN1; tBuAla = CC(C)(C)C[C@H](N)C(=O)O; 2Thi = N[C@@H](Cc1cccs1)C(=O)O; 3Thi = N[C@@H](Cc1ccsc1)C(=O)O; Cha = N[C@@H](CC1CCCCC1)C(=O)O; Thr(ol) = C[C@@H](O)[C@H](N)CO; hLeu = CC(C)CC[C@H](N)C(=O)O

T1: B-cat-Halo (UniProt P35222 1-781)
T1 sequence (looked up): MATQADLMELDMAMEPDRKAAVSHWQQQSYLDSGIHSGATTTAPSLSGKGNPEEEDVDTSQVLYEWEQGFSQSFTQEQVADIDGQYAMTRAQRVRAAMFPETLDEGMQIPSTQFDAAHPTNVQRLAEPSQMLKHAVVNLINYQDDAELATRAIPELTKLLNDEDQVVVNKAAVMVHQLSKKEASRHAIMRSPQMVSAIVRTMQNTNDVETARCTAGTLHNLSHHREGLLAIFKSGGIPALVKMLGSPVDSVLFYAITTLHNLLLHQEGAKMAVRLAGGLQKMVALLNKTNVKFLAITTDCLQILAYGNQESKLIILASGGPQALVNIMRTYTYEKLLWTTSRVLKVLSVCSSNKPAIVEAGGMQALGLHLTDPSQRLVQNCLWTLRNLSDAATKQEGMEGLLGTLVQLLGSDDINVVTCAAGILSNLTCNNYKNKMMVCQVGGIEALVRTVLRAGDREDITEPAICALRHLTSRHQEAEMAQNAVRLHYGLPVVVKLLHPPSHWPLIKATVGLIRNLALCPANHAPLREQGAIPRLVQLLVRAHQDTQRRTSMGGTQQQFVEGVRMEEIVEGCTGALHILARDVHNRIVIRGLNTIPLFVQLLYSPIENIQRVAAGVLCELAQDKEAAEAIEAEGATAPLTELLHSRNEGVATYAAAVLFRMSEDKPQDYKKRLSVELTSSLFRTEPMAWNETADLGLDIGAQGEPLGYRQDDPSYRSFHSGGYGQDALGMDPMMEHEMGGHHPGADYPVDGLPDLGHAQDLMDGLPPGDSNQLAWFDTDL

T2: B-cat-Halo (UniProt P35222 1-781)
T2 sequence (looked up): T1 sequence (looked up)


biological target: T1, B-cat-Halo; test: cell-based or functional assay

Row | Binder | NanoBRET Abs IC50 [µM]
1 | Ac-[αAllylPro]D[hLeu][B5(3)]DDAAFN[PyrS2][3Thi][Bta]H-NH2 (staple 1-4, 4-11) [I-788] | 21.6
2 | Ac-[αAllylPro]D[tBuAla][B5(13)]DDAAFN[PyrS2][Phe(2-OMe)][Bta]Q-NH2 (staple 1-4, 4-11) [I-780] | 20.7
3 | Ac-[αAllylPro]D[tBuAla][B5(3)]DEAAFN[PyrS2][3Thi][Bta]-NH2 (staple 1-4, 4-11) [I-786] | 29.3
4 | Ac-[αAllylPro]D[tBuAla][B5(3)]DDAAFN[PyrS2][Bta][Bta]H-NH2 (staple 1-4, 4-11) [I-793] | > 20
5 | Ac-[αAllylPro]D[tBuAla][B5(3)]DDAAFN[PyrS2][3Thi][1Nal]H-NH2 (staple 1-4, 4-11) [I-789] | > 20
6 | Ac-[αAllylPro]D[tBuAla][B5(3)]DDAAFN[PyrS2][3Thi][2Nal]H-NH2 (staple 1-4, 4-11) [I-790] | > 20
7 | Ac-[αAllylPro]D[tBuAla][B5(3)]DDAAFN[PyrS2][3Thi]WH-NH2 (staple 1-4, 4-11) [I-792] | > 20
8 | Ac-[αAllylPro]D[hLeu][B5(3)]DDAAFN[PyrS2][3Thi][Bta]Q-NH2 (staple 1-4, 4-11) [I-787] | 30.7
9 | Ac-[αAllylPro]D[tBuAla][B5(3)]DDAAFN[PyrS2][Phe(2-Cl)][Bta]H-NH2 (staple 1-4, 4-11) [I-784] | 14.5
10 | Ac-[αAllylPro]D[tBuAla][B5(13)]DDAAFN[PyrS2][2Thi][Bta]H-NH2 (staple 1-4, 4-11) [I-779] | 18.7
11 | Ac-[αAllylPro]D[tBuAla][B5(13)]DDAAFN[PyrS2][Phe(2-Cl)][Bta]Q-NH2 (staple 1-4, 4-11) [I-783] | 6.2
12 | Ac-[αAllylPro]D[tBuAla][B5(13)]DDAAFN[PyrS2][Phe(2-OMe)][Bta]H-NH2 (staple 1-4, 4-11) [I-781] | 31
13 | Ac-[αAllylPro]D[tBuAla][B5(13)]DDAAFN[PyrS2][2Thi][Bta]Q-NH2 (staple 1-4, 4-11) [I-778] | 11.2
14 | Ac-[αAllylPro]D[tBuAla][B5(3)]DDAAFN[PyrS2][3Thi][Bta]-NH2 (staple 1-4, 4-11) [I-785] | 21.6
15 | Ac-[αAllylPro]D[tBuAla][B5(13)]DDAAFN[PyrS2][Phe(2-Me)][Bta]H-NH2 (staple 1-4, 4-11) [I-782] | 12.2

biological target: T2, B-cat-Halo; test: cell-based or functional assay

Row | Binder | NanoBRET Abs IC50 [µM]
16 | [αAllylPro]D[tBuAla][B5(4)]DDAAFF[PyrS2″][Phe(2-Me)][Bta]Q-NH2 (staple 1-4, 4-11) [I-1326] | 6.2
17 | Ac-[αAllylPro]D[tBuAla][B5(4)]DDAAFN[PyrS2″][Phe(2-Br)][Bta]Q-NH2 (staple 1-4, 4-11) [I-1323] | 11.7
18 | [αAllylPro]D[tBuAla][B5(4)]DDAAFL[PyrS2″][Phe(2-OMe)][Bta]Q-NH2 (staple 1-4, 4-11) [I-1327] | 7
19 | Ac-[αAllylPro]D[tBuAla][B5(4)]DDAAFN[PyrS2″][Phe(2-F)][Bta]Q-NH2 (staple 1-4, 4-11) [I-1320] | 26.2
20 | Ac-[αAllylPro]D[tBuAla][B5(4)]DDAAFF[PyrS2″][2cbmF][Bta]Q-NH2 (staple 1-4, 4-11) [I-1316] | 6.8
21 | [αAllylPro]D[tBuAla][B5(4)]DDAAFF[PyrS2″][Phe(2-Br)][Bta]Q-NH2 (staple 1-4, 4-11) [I-1325] | 5.7
22 | [αAllylPro]D[tBuAla][B5(4)]DDAAFL[PyrS2″][Phe(2-Br)][Bta]Q-NH2 (staple 1-4, 4-11) [I-1324] | 5.8
23 | Ac-[αAllylPro]D[tBuAla][B5(4)]DDAAFL[PyrS2″][Phe(2-F)][Bta]Q-NH2 (staple 1-4, 4-11) [I-1321] | 10.9
24 | Ac-[αAllylPro]D[tBuAla][B5(4)]DDAAFN[PyrS2″][Phe(2-CONH2)][Bta]Q-NH2 (staple 1-4, 4-11) [I-1314] | > 20
25 | Ac-[αAllylPro]D[tBuAla][B5(4)]DDAAFL[PyrS2″][2cbmF][Bta]Q-NH2 (staple 1-4, 4-11) [I-1315] | 7.2
26 | Ac-[αAllylPro]D[tBuAla][B5(4)]DDAAFN[PyrS2″][Phe(2-CF3)][Bta]Q-NH2 (staple 1-4, 4-11) [I-1317] | 9.7
27 | Ac-[αAllylPro]D[tBuAla][B5(4)]DDAAFF[PyrS2″][Phe(2-F)][Bta]Q-NH2 (staple 1-4, 4-11) [I-1322] | 9.1
28 | Ac-[αAllylPro]D[tBuAla][B5(4)]DD[Lys(iPr)]AFL[PyrS2″][Phe(2-Cl)][Bta][Thr(ol)] (staple 1-4, 4-11) [I-1313] | 51.4
29 | Ac-[αAllylPro]D[Cha][B5(4)]DDAAFT[PyrS2″][Phe(2-Cl)][Bta][Thr(ol)] (staple 1-4, 4-11) [I-1312] | 16.1
